The chains are these.
B1: 10 (protein)
chain: MADLYENPMGLMGFEFIEFASPTPGTLEPIFEIMGFTKVATHRSKNVHLYRQGEINLILNNEPNSIASYFAAEHGPSVCGMAFRVKDSQKAYNRALELGAQPIHIDTGPMELNLPAIKGIGGAPLYLIDRFGEGSSIYDIDFVYLEGVERNPVGAGLKVIDHLTHNVYRGRMVYWANFYEKLFNFREARYFDIKGEYTGLTSKAMSAPDGMIRIPLNEESSKGAGQIEEFLMQFNGEGIQHVAFLTDDLVKTWDALKKIGMRFMTAPPDTYYEMLEGRLPDHGEPVDQLQARGILLDGSSVEGDKRLLLQIFSETLMGPVFFEFIQRKGDDGFGPDSFKVLFESVERDQVRRGVLTAD
modifications: mutant HPPD polypeptide
B2: 87 (protein)
chain: B1 chain with P268G, T270E, V345A
modifications: mutant HPPD polypeptide
B3: 86 (protein)
chain: B1 chain with P268G, T270E, V340Q
modifications: mutant HPPD polypeptide
B4: 44 (protein)
chain: B1 chain with R213L, P268G, T270E
modifications: mutant HPPD polypeptide
B5: 83 (protein)
chain: B1 chain with P268G, T270E, V340G
modifications: mutant HPPD polypeptide
B6: 73 (protein)
chain: B1 chain with P268S, T270E
modifications: mutant HPPD polypeptide
B7: 88 (protein)
chain: B1 chain with P268G, T270E, V345I
modifications: mutant HPPD polypeptide
B8: 46 (protein)
chain: B1 chain with P268G, T270E, T315M
modifications: mutant HPPD polypeptide
B9: 67 (protein)
chain: B1 chain with M264K, P268G, T270E
modifications: mutant HPPD polypeptide
B10: 92 (protein)
chain: B1 chain with M264R, P268G, T270E, D330H, V345A
modifications: mutant HPPD polypeptide
B11: 40 (protein)
chain: B1 chain with A204M, P268G, T270E
modifications: mutant HPPD polypeptide
B12: 89 (protein)
chain: B1 chain with P268G, T270E, V345K
modifications: mutant HPPD polypeptide
B13: 72 (protein)
chain: B1 chain with P268R, T270E
modifications: mutant HPPD polypeptide
B14: 59 (protein)
chain: B1 chain with P268G, T270E, S344R
modifications: mutant HPPD polypeptide
B15: 77 (protein)
chain: B1 chain with P268G, T270S
modifications: mutant HPPD polypeptide
B16: 52 (protein)
chain: B1 chain with P268G, T270E, D331S
modifications: mutant HPPD polypeptide
B17: 76 (protein)
chain: B1 chain with P268G, T270R
modifications: mutant HPPD polypeptide
B18: 81 (protein)
chain: B1 chain with P268G, T270E, V340A
modifications: mutant HPPD polypeptide
B19: 57 (protein)
chain: B1 chain with P268G, T270E, K339T
modifications: mutant HPPD polypeptide
B20: 39 (protein)
chain: B1 chain with A204L, P268G, T270E
modifications: mutant HPPD polypeptide
B21: 56 (protein)
chain: B1 chain with P268G, T270E, K339R
modifications: mutant HPPD polypeptide

Changes are numbered by the printed parent chain.

The first data set relates to HPPD polypeptides (wild-type SEQ ID NO:1 and mutants).
Assay: not given
The following applies: in the presence of Cmpd. 1, 15 μM inhibitor, high substrate concentration; kapp normalized to kapp without inhibitor.
As for B1, the Residual activity was found to be 41%.

Still in this data set, the particulars now being: in the presence of Cmpd. 1, 15 μM inhibitor, high substrate concentration; total change in signal normalized to no inhibitor.
For the molecule B1, the Residual turnover came to 66%.

Staying with this data set, now noted: in the presence of Cmpd. 2, 15 μM inhibitor, high substrate concentration; kapp normalized to kapp without inhibitor.
As for B1, the Residual activity is reported as 89%.

Staying with this data set, now noted: in the presence of Cmpd. 2, 15 μM inhibitor, high substrate concentration; total change in signal normalized to no inhibitor.
With B1, the Residual turnover entry is “n.i”.

The data set is the same for the next values; noted with them: in the presence of diketonitrile (DKN), 60 μM inhibitor, high substrate concentration; kapp normalized to kapp without inhibitor.
Regarding B1, the Residual activity entry was “n.i. (no inhibition was observed under the given conditions)”.

Still in this data set, the particulars now being: in the presence of diketonitrile (DKN), 60 μM inhibitor, high substrate concentration; total change in signal normalized to no inhibitor.
B1: the Residual turnover entry is “n.i”.

Still in this data set, the particulars now being: in the presence of mesotrione (MST), 60 μM inhibitor, high substrate concentration; kapp normalized to kapp without inhibitor.
For B1, the Residual activity came to 82%.

Still in this data set, the particulars now being: in the presence of mesotrione (MST), 60 μM inhibitor, high substrate concentration; total change in signal normalized to no inhibitor.
In the case of B1, the Residual turnover result is on record as “n.i”.

Staying with this data set, now noted: kapp in presence of 50 μM Cmpd. 1, normalised to kapp without inhibitor; low substrate concentration.
For B2, the Residual activity is listed as 17%.

With B3, the Residual activity is given as 23%.

As for B4, the Residual activity was 58%.

Turning to B5, the Residual activity worked out at 53%.

On to B6, for which the Residual activity turned out to be 29%.

Regarding B7, the Residual activity was determined as 20%.

As for B8, the Residual activity amounted to 32%.

Regarding B9, the Residual activity is listed as 73%.

As to B10, the Residual activity is reported as 61%.

Turning to B11, the Residual activity came out at 65%.

As to B12, the Residual activity is given as 23%.

Take B13: the Residual activity is 25%.

For the molecule B14, the Residual activity amounted to 19%.

As for B15, the Residual activity is given as 19%.

Take B16: the Residual activity was determined as 31%.

B17: the Residual activity was determined as 19%.

Consider B18, for which the Residual activity is given as 17%.

B19: the Residual activity is 33%.

B20: the Residual activity worked out at 34%.

For the molecule B21, the Residual activity was determined as 27%.

The same data set, now with this note: total change in signal in presence of 50 μM Cmpd. 1, normalised to that without inhibitor; low substrate concentration.
As to B2, the Residual turnover is on record as 53%.

In the case of B3, the Residual turnover was 45%.

On to B4, for which the Residual turnover was determined as 78%.

For the molecule B5, the Residual turnover turned out to be 87%.

B6: the Residual turnover is on record as 58%.

In the case of B7, the Residual turnover was found to be 44%.

Turning to B8, the Residual turnover worked out at 59%.

Regarding B9, the Residual turnover was 96%.

Turning to B10, the Residual turnover was found to be 81%.

With B11, the Residual turnover was found to be 77%.

Take B12: the Residual turnover was 43%.

As to B13, the Residual turnover was 55%.

For the molecule B14, the Residual turnover came to 46%.

As to B15, the Residual turnover is given as 44%.

Turning to B16, the Residual turnover worked out at 57%.

For the molecule B17, the Residual turnover is 50%.

In the case of B18, the Residual turnover was found to be 51%.

For the molecule B19, the Residual turnover is recorded as 68%.

On to B20, for which the Residual turnover is reported as 61%.

As for B21, the Residual turnover is given as 59%.

For the next data set, the system named is E. coli cells expressing an HPPD polypeptide. Put plainly: Brown color bioassay in liquid culture, residual brown color formation (BCF), OD440 after 96 hours. It counts as cell-based. The following applies: brown color formation in absence of Cmpd. 1, culture supernatant after 96 hours, 5 mM HPP. How it is done:
In an additional experiment, mutant HPPD polypeptides were analyzed using the principle of a colorimetric brown color assay (as, for example, described in U.S. Pat. No. 6,768,044). Bacterial cells expressing the HPPD polypeptides according to this invention were assayed in 96 well plate format (Nunc® 96 DeepWell™ plate, Sigma-Aldrich, St. Louis, USA) for HPPD polypeptides with improved HPPD inhibitor herbicide tolerance.
E. coli cells were grown in liquid LB medium (Carl Roth GmbH+Co. KG, Karlsruhe, Germany) containing the selection agent for the expression vector pSE420(RI)NX (WO2014/043435) and 5 mM para-hydroxyphenylpyruvate (HPP; Sigma-Aldrich, St. Louis, USA), in the presence of absence of the HPPD inhibitor herbicide e.g. Cmpd. 1 (1000 μM). An overnight culture of E. coli culture expressing one of the respective HPPD polypeptides according to this invention were adjusted to an OD600 of 0.3-0.5 in a final volume of 500 μL and incubated at 30 degree Celsius. Residual brown color formation was determined by measuring the brown color formation (BCF) in the presence and absence of Cmpd. […] Therefore, after 96 hours the culture was centrifuged and the supernatant of the culture was used to measure the optical density of the soluble brown pigment formation at 440 nm (OD440 nm).
Consider B1, for which the “Control BCF OD440nm” value turned out to be 1.09.

With B2, the “Control BCF OD440nm” value was found to be 1.91.

In the case of B3, the “Control BCF OD440nm” value is 1.94.

As to B4, the “Control BCF OD440nm” value is on record as 1.60.

Regarding B5, the “Control BCF OD440nm” value was 1.83.

For B6, the “Control BCF OD440nm” value was 2.75.

For B7, the “Control BCF OD440nm” value stood at 2.21.

B8: the “Control BCF OD440nm” value worked out at 2.47.

B9: the “Control BCF OD440nm” value turned out to be 1.93.

With B10, the “Control BCF OD440nm” value was 1.38.

In the case of B11, the “Control BCF OD440nm” value is listed as 1.89.

For B12, the “Control BCF OD440nm” value was found to be 2.36.

As for B13, the “Control BCF OD440nm” value was 2.77.

Regarding B14, the “Control BCF OD440nm” value was determined as 1.29.

Consider B15, for which the “Control BCF OD440nm” value is on record as 2.57.

Take B16: the “Control BCF OD440nm” value worked out at 2.08.

As to B17, the “Control BCF OD440nm” value is 2.73.

Consider B18, for which the “Control BCF OD440nm” value was 2.05.

On to B19, for which the “Control BCF OD440nm” value is reported as 1.39.

For the molecule B20, the “Control BCF OD440nm” value is recorded as 1.63.

B21: the “Control BCF OD440nm” value came out at 1.98.

Staying with this data set, now noted: brown color formation with Cmpd. 1 (1000 μM) relative to without, after 96 hours.
As to B1, the “Residual BCF OD440nm [%]” value came to 65%.

In the case of B2, the “Residual BCF OD440nm [%]” value was 68%.

As to B3, the “Residual BCF OD440nm [%]” value is 74%.

Turning to B4, the “Residual BCF OD440nm [%]” value is reported as 40%.

Consider B5, for which the “Residual BCF OD440nm [%]” value is reported as 47%.

Take B6: the “Residual BCF OD440nm [%]” value worked out at 72%.

As to B7, the “Residual BCF OD440nm [%]” value was 77%.

As for B8, the “Residual BCF OD440nm [%]” value is on record as 66%.

On to B9, for which the “Residual BCF OD440nm [%]” value was determined as 71%.

On to B10, for which the “Residual BCF OD440nm [%]” value amounted to 59%.

As for B11, the “Residual BCF OD440nm [%]” value amounted to 58%.

With B12, the “Residual BCF OD440nm [%]” value stood at 67%.

B13: the “Residual BCF OD440nm [%]” value is given as 72%.

In the case of B14, the “Residual BCF OD440nm [%]” value stood at 51%.

In the case of B15, the “Residual BCF OD440nm [%]” value was 67%.

In the case of B16, the “Residual BCF OD440nm [%]” value was determined as 65%.

As to B17, the “Residual BCF OD440nm [%]” value was 58%.

As to B18, the “Residual BCF OD440nm [%]” value stood at 39%.

With B19, the “Residual BCF OD440nm [%]” value was found to be 46%.

Take B20: the “Residual BCF OD440nm [%]” value stood at 55%.

For the molecule B21, the “Residual BCF OD440nm [%]” value is reported as 68%.

The record behind these values is patent publication US10597674B2, “HPPD variants and methods of use” (BASF Agricultural Solutions Seed, US LLC, priority 2015, dated 2020).
